# Measured values reported in the supplement of paper PMC9112550, “Optimization of the antimicrobial peptide Bac7 by deep mutational scanning” (BMC Biology, 2022).
# System: Escherichia coli TOP10
# Test: shrunken log2 fold change of peptide-encoding DNA abundance (4.5 h post-induction vs induction); higher = less antimicrobial activity (less host growth inhibition)
# Conditions: time post-induction: 4.5 h; library: site-saturation at positions 5, 18, 19, 20
# 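Also: peptides expressed intracellularly from a pBAD plasmid library in pooled LB shake-flask culture, induced with 0.3% L-arabinose, DNA abundance read by NGS, three biological replicates, DESeq2 with apeglm shrinkage.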
row,Sequence,shrunken log2 fold change
1,RRIRRRPPRLPRPRPRPRAFPRP,0.605
2,RRIRRRPPRLPRPRPRPRALPRP,0.482
3,RRIRRRPPRLPRPRPRPRAMPRP,0.145
4,RRIRRRPPRLPRPRPRPRASPRP,0.527
5,RRIRRRPPRLPRPRPRPRCEPRP,0.342
6,RRIRRRPPRLPRPRPRPRCYPRP,0.00798
7,RRIRRRPPRLPRPRPRPRFHPRP,0.0555
8,RRIRRRPPRLPRPRPRPRGFPRP,0.131
9,RRIRRRPPRLPRPRPRPRGPPRP,0.871
10,RRIRRRPPRLPRPRPRPRHWPRP,0.551
11,RRIRRRPPRLPRPRPRPRIGPRP,0.0791
12,RRIRRRPPRLPRPRPRPRMAPRP,0.294
13,RRIRRRPPRLPRPRPRPRNCPRP,-0.0356
14,RRIRRRPPRLPRPRPRPRNHPRP,-0.0441
15,RRIRRRPPRLPRPRPRPRPCPRP,0.384
16,RRIRRRPPRLPRPRPRPRPSPRP,0.781
17,RRIRRRPPRLPRPRPRPRQIPRP,0.452
18,RRIRRRPPRLPRPRPRPRQVPRP,0.466
19,RRIRRRPPRLPRPRPRPRRTPRP,0.46
20,RRIRRRPPRLPRPRPRPRSIPRP,-0.0781
21,RRIRRRPPRLPRPRPRPRTEPRP,0.432
22,RRIRRRPPRLPRPRPRPRYMPRP,-0.378
23,RRIRRRPPRLPRPRPRPSAEPRP,0.716
24,RRIRRRPPRLPRPRPRPSCGPRP,0.0769
25,RRIRRRPPRLPRPRPRPSCLPRP,-0.172

row,Sequence,shrunken log2 fold change
1,RRIRRRPPRLPRPRPRPSGAPRP,0.536
2,RRIRRRPPRLPRPRPRPSHHPRP,-0.173
3,RRIRRRPPRLPRPRPRPSHLPRP,-0.21
4,RRIRRRPPRLPRPRPRPSIKPRP,2.9
5,RRIRRRPPRLPRPRPRPSIPPRP,-0.0753
6,RRIRRRPPRLPRPRPRPSIWPRP,0.032
7,RRIRRRPPRLPRPRPRPSKHPRP,-0.196
8,RRIRRRPPRLPRPRPRPSKNPRP,-0.00571
9,RRIRRRPPRLPRPRPRPSLNPRP,0.00555
10,RRIRRRPPRLPRPRPRPSMCPRP,0.008
11,RRIRRRPPRLPRPRPRPSNRPRP,-0.0253
12,RRIRRRPPRLPRPRPRPSPFPRP,0.292
13,RRIRRRPPRLPRPRPRPSPHPRP,0.334
14,RRIRRRPPRLPRPRPRPSQVPRP,0.0533
15,RRIRRRPPRLPRPRPRPSQWPRP,0.264
16,RRIRRRPPRLPRPRPRPSRMPRP,0.0176
17,RRIRRRPPRLPRPRPRPSRSPRP,0.139
18,RRIRRRPPRLPRPRPRPSSCPRP,0.055
19,RRIRRRPPRLPRPRPRPSSYPRP,-0.0808
20,RRIRRRPPRLPRPRPRPSVQPRP,0.184
21,RRIRRRPPRLPRPRPRPSVVPRP,0.15
22,RRIRRRPPRLPRPRPRPSWCPRP,-0.154
23,RRIRRRPPRLPRPRPRPSWNPRP,-0.157
24,RRIRRRPPRLPRPRPRPSYQPRP,-0.141
25,RRIRRRPPRLPRPRPRPTCCPRP,0.397

row,Sequence,shrunken log2 fold change
1,RRIRRRPPRLPRPRPRPTDIPRP,-0.771
2,RRIRRRPPRLPRPRPRPTDYPRP,-0.00271
3,RRIRRRPPRLPRPRPRPTFLPRP,0.115
4,RRIRRRPPRLPRPRPRPTHCPRP,0.562
5,RRIRRRPPRLPRPRPRPTHPPRP,0.543
6,RRIRRRPPRLPRPRPRPTKNPRP,0.395
7,RRIRRRPPRLPRPRPRPTKPPRP,0.541
8,RRIRRRPPRLPRPRPRPTLNPRP,0.511
9,RRIRRRPPRLPRPRPRPTMNPRP,-0.0748
10,RRIRRRPPRLPRPRPRPTMQPRP,0.275
11,RRIRRRPPRLPRPRPRPTNAPRP,0.158
12,RRIRRRPPRLPRPRPRPTNYPRP,-0.0945
13,RRIRRRPPRLPRPRPRPTRDPRP,0.64
14,RRIRRRPPRLPRPRPRPTRGPRP,0.661
15,RRIRRRPPRLPRPRPRPTRLPRP,0.612
16,RRIRRRPPRLPRPRPRPTRRPRP,0.853
17,RRIRRRPPRLPRPRPRPTSKPRP,0.162
18,RRIRRRPPRLPRPRPRPTTPPRP,0.463
19,RRIRRRPPRLPRPRPRPTWLPRP,0.633
20,RRIRRRPPRLPRPRPRPTWWPRP,0.57
21,RRIRRRPPRLPRPRPRPTYTPRP,-0.214
22,RRIRRRPPRLPRPRPRPVALPRP,0.225
23,RRIRRRPPRLPRPRPRPVCKPRP,-0.012
24,RRIRRRPPRLPRPRPRPVCQPRP,0.179
25,RRIRRRPPRLPRPRPRPVEDPRP,0.355
